Substrate: CC(C)(COP(=O)(O)O)[C@@H](O)C(=O)NCCC(=O)NCCS
Test: purified protein
Format: biochemical, Escherichia coli
Conditions: 10 µM pppAGGAA RNA as acceptor, 500 nM PPAT, 5 mM MgCl2, pH 7.5, 37°C, pPant 10-200 µM

B1: phosphopantetheine adenylyltransferase (PPAT, CoaD) (Escherichia coli K-12) (protein)
chain: MQKRAIYPGTFDPITNGHIDIVTRATQMFDHVILAIAASPSKKPMFTLEERVALAQQATAHLGNVEVVGFSDLMANFARNQHATVLIRGLRAVADFEYEMQLAHMNRHLMPELESVFLMPSKEWSFISSSLVKEVARHQGDVTHFLPENVHQALMAKLA
notes: recombinant full-length enzyme expressed from coaD plasmid and purified; hexamer
B1 gave a Km of 14 µM.

Source: paper PMC10761072, “Post-transcriptional capping generates coenzyme A-linked RNA” (RNA Biology, 2023)
